Source: paper PMC5896956, “Small molecule induced oligomerization, clustering and clathrin-independent endocytosis of the dopamine transporter” (eLife, 2018)

B1: HA-DAT (endogenous, HA-DAT knock-in mouse) (natural protein, UniProt Q61327 1-619, looked up)
chain: MSKSKCSVGPMSSVVAPAKEPNAVGPREVELILVKEQNGVQLTNSTLINPPQTPVEVQERETWSKKIDFLLSVIGFAVDLANVWRFPYLCYKNGGGAFLVPYLLFMVIAGMPLFYMELALGQFNREGAAGVWKICPVLKGVGFTVILISFYVGFFYNVIIAWALHYFFSSFTMDLPWIHCNNTWNSPNCSDAHSSNSSDGLGLNDTFGTTPAAEYFERGVLHLHQSRGIDDLGPPRWQLTACLVLVIVLLYFSLWKGVKTSGKVVWITATMPYVVLTALLLRGVTLPGAMDGIRAYLSVDFYRLCEASVWIDAATQVCFSLGVGFGVLIAFSSYNKFTNNCYRDAIITTSINSLTSFSSGFVVFSFLGYMAQKHNVPIRDVATDGPGLIFIIYPEAIATLPLSSAWAAVFFLMLLTLGIDSAMGGMESVITGLVDEFQLLHRHRELFTLGIVLATFLLSLFCVTNGGIYVFTLLDHFAAGTSILFGVLIEAIGVAWFYGVQQFSDDIKQMTGQRPNLYWRLCWKLVSPCFLLYVVVVSIVTFRPPHYGAYIFPDWANALGWIIATSSMAMVPIYATYKFCSLPGSFREKLAYAITPEKDRQLVDRGEVRQFTLRHWLLV
notes: it is reached by the HA11 antibody from outside the cell; Detected with the rat DAT antibody; oligomer species at 190 kDa; also called mouse DAT; source: endogenous (knock-in), striatal synaptosomes of adult HA-DAT mice
B2: DAT fused to yellow fluorescent protein (YFP) (YFP-DAT) (natural protein, human, UniProt Q01959 1-620, looked up)
chain: MSKSKCSVGLMSSVVAPAKEPNAVGPKEVELILVKEQNGVQLTSSTLTNPRQSPVEAQDRETWGKKIDFLLSVIGFAVDLANVWRFPYLCYKNGGGAFLVPYLLFMVIAGMPLFYMELALGQFNREGAAGVWKICPILKGVGFTVILISLYVGFFYNVIIAWALHYLFSSFTTELPWIHCNNSWNSPNCSDAHPGDSSGDSSGLNDTFGTTPAAEYFERGVLHLHQSHGIDDLGPPRWQLTACLVLVIVLLYFSLWKGVKTSGKVVWITATMPYVVLTALLLRGVTLPGAIDGIRAYLSVDFYRLCEASVWIDAATQVCFSLGVGFGVLIAFSSYNKFTNNCYRDAIVTTSINSLTSFSSGFVVFSFLGYMAQKHSVPIGDVAKDGPGLIFIIYPEAIATLPLSSAWAVVFFIMLLTLGIDSAMGGMESVITGLIDEFQLLHRHRELFTLFIVLATFLLSLFCVTNGGIYVFTLLDHFAAGTSILFGVLIEAIGVAWFYGVGQFSDDIQQMTGQRPSLYWRLCWKLVSPCFLLFVVVVSIVTFRPPHYGAYIFPDWANALGWVIATSSMAMVPIYAAYKFCSLPGSFREKLAYAIAPEKDRELVDRGEVRQFTLRHWLKV
notes: Dopamine transporter (DAT), human; In the FRET experiment one copy carried CFP (CFP-DAT) and the other YFP (YFP-DAT); also called CFP-DAT (the copy with CFP in place of YFP, donor in the FRET experiment); source: PAE cells, stably expressed, in lysate; for FRET in living PAE cells stably co-expressing CFP-DAT and YFP-DAT

Legend:
[1] = target: the molecule itself; assay: SDS-resistant oligomers on SDS-PAGE and western blot; striatal synaptosomes of adult HA-DAT mice in KRH/G, vehicle (DMSO) or 10–20 µM AIM-100 for 2 hr at 37°C; pelleted synaptosomes denatured in Laemmli buffer, SDS-PAGE, blot with DAT antibody
[2] = target: the molecule itself; assay: SDS-resistant oligomers on SDS-PAGE and western blot; PAE cells stably expressing the tagged transporter, vehicle (DMSO) or 20 µM AIM-100 for 2 hr at 37°C (also after cocaine, dopamine, amphetamine, modafinil, KRCA-0008, CHC siRNA, at 4°C or 20°C); lysis in TGH buffer, Laemmli buffer (2% SDS, 5% β-mercaptoethanol) 5 min at 95°C, 7.5% SDS-PAGE, blot with GFP antibody; oligomers (O) against monomers (M)

Row | Protein | stoichiometry N [1] | stoichiometry N [2]
1 | B1 | ~3 | 
2 | B2 |  | ~3
